Data taken from paper PMC6068105.
pKd: −log10 of the molar value.

Experiments:
[1] = target: Human plasma fibronectin (human); test: SPR; Biacore T100, 25 °C; fibronectin (10 μg/ml) directly immobilized on CM5 chip; CSGal-1 injected at 30 μl/min; 10 mM HEPES pH 7.4, 150 mM NaCl, 3 mM EDTA, 0.0005% TWEEN-20; steady-state model
[2] = target: recombinant mouse α5β1 integrin protein (mouse) (UniProt P11688); test: SPR; Biacore T100, 25 °C; α5β1 integrin (1 μg/ml) captured by anti-α5 integrin antibody on CM5 chip; CSGal-1 injected at 30 μl/min; 10 mM HEPES pH 7.4, 150 mM NaCl, 3 mM EDTA, 0.0005% TWEEN-20; steady-state model

Human plasma fibronectin (human), sequence (P02751 other isoform, or with tags, fused parts or gaps): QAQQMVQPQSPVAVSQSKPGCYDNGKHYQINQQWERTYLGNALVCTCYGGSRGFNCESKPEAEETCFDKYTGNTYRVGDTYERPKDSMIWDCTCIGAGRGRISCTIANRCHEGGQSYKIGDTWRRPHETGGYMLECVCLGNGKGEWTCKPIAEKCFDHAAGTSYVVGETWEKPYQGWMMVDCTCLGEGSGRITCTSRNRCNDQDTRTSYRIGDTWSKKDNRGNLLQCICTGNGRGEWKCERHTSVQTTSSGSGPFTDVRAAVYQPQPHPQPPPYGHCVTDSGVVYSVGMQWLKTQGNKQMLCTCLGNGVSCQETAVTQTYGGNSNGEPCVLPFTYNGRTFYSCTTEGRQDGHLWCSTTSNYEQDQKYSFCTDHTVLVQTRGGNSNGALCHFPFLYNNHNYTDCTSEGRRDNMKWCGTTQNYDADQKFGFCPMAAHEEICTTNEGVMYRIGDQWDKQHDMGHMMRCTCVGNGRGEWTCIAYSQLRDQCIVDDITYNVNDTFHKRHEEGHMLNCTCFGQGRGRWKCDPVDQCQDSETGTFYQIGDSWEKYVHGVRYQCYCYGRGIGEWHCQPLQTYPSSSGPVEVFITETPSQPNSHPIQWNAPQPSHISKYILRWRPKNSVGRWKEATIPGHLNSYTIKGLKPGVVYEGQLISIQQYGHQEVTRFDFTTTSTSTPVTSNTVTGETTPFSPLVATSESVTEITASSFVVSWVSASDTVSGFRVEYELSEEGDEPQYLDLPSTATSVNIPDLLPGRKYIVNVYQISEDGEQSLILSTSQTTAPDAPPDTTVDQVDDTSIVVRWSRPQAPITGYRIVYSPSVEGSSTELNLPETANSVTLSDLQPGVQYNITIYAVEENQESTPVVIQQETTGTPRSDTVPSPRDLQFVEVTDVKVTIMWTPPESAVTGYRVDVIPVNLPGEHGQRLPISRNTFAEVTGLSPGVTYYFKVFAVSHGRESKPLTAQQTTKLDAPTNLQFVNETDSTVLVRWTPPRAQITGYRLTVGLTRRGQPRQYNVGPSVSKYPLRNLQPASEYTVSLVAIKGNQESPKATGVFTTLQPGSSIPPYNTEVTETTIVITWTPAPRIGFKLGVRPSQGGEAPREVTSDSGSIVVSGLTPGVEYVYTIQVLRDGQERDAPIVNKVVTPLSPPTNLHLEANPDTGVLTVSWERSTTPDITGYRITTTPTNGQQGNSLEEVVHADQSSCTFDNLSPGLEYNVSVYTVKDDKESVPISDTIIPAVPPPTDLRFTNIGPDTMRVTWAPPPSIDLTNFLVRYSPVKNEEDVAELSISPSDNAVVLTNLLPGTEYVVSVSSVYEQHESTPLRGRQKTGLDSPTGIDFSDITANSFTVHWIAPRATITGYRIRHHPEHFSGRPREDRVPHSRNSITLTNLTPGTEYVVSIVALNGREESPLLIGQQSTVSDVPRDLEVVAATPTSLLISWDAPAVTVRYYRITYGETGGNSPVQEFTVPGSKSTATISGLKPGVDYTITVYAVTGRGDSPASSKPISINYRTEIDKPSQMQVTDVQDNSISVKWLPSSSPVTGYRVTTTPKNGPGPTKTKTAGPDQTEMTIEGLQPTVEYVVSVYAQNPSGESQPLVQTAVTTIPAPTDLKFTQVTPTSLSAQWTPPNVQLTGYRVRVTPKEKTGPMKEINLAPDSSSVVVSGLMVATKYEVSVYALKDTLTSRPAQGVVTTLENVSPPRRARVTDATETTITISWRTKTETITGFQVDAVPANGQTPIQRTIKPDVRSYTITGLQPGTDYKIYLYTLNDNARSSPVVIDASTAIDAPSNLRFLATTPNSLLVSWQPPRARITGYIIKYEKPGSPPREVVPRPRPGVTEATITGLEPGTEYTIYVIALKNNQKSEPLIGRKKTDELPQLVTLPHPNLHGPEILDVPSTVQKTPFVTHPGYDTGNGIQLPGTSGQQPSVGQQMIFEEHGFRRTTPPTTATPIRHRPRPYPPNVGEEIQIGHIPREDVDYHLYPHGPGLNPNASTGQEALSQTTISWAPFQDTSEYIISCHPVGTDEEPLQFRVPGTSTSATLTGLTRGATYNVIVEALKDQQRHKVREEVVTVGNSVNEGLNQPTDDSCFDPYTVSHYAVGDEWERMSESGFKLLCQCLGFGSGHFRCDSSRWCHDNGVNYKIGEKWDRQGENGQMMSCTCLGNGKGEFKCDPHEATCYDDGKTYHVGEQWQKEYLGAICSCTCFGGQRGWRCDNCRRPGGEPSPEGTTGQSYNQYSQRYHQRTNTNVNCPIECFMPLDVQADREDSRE

pKd [1]: 4.91
pKd [2]: 6.07
Substance: CSGal-1, cysteine-less mutant of human galectin-1, tag-free recombinant protein (from UniProt P09382 1-135) (natural protein)
